Test results: patent US20210255205A1, “COMPOSITIONS AND METHODS FOR TREATING METABOLIC DISEASE” (THE REGENTS OF THE UNIVERSITY OF CALIFORNIA, priority 2018, published 2021)

Assay: in vitro cholesterol transfer between heavy and light liposomes
Assay type: biochemical
Conditions: purified recombinant ASTER domain, 15 min under agitation
Protocol: Values are means±SEM. […] Input (Ctrl) served as a control for LXR enrichment. […] Values are means±SEM. […] Results values are means±SD. […] Results values are means±SD. […] Values are means±SEM.
Liposomes were generated by drying lipids in glass tube under liquid nitrogen. Lipid films were then resuspended in 50 mM hepes, 120 mM potassium acetate buffer ±0.75M sucrose where indicated. Lipid suspensions were then vortexed and incubated for 30 minutes at 37° C. (2 mM total lipid concentration). Suspensions were then snap frozen in liquid nitrogen and thawed rapidly at 37° C. five times. Light liposomes were prepared by extruding through 100 nm polycarbonate filters. Heavy liposomes containing sucrose were prepared by extruding through a 400 nm polycarbonate filter, then washing several times in 50 mM hepes, 120 mM potassium acetate buffer with no sucrose. Liposome sizes were confirmed using an N4 Dynamic Light Scattering instrument.
To test the ability of the ASTER domain to transfer cholesterol between membranes, an in vitro assay was optimized with heavy and light liposomes. Purified recombinant ASTER domain was incubated with “heavy” PC/dansyl-PE liposomes and “light” PC/cholesterol/dansyl-PE liposomes under agitation for 15 min. The liposomes were separated by centrifugation, and cholesterol levels were determined. Dansyl-PE intensities of heavy liposomes were used to normalize the cholesterol values.

Molecule | cholesterol transfer to the heavy liposomes
Aster-B: purified recombinant ASTER domain of mouse Aster-B (protein, UniProt Q80TI0 224-560, looked up, fragment, ASTER domain) NELGLTSDDEDYVPPDDDFNTMGYCEEIPIEENEVNDSSSKSSIETKPDASPQLPKKSITNSTLTSTGSSEAPVSFDGLPLEEEVMEGDGSLEKELAIDNIIGEKIEIMAPVTSPSLDFNDNEDIPTELSDSSDTHDEGEVQAFYEDLSGRQYVNEVFNFSVDKLYDLLFTNSPFLRDFMEQRRFSDIIFHPWKKEENGNQSRVILYTITLTNPLAPKTATVRETQTMYKASQESECYVIDAEVLTHDVPYHDYFYTINRYTLTRVARNKSRLRVSTELRYRKQPWGFVKTFIEKNFWSGLEDYFRHLETELTKTESTYLAEIHRQSPKEKASKSSA | efficiently facilitated cholesterol transfer
Aster-A: purified recombinant ASTER domain of mouse Aster-A (protein, UniProt Q8VEF1 261-576, looked up, fragment, ASTER domain) AADHSQEPSPVGSRRGRVTPNLSRASSDADHGAEEDKEEQTDGLDASSSQTVTPVAEPLSSEPTPPDGPTSSLGPLDLLSREELLTDTSNSSSSTGEEGDLAALLPDLSGRLLINSVFHMGAERLQQMLFSDSPFLQGFLQQRKFTDVTLSPWSSDSKCHQRRVLTYTIPISNQLGPKSASVVETQTLFRRGPQAGGCVVDSEVLTQGIPYQDYFYTAHRYCILGLARNKARLRVSSEIRYRKQPWSLVKSLIEKNSWSGIEDYFHHLDRELAKAEKLSLEEGGKDTRGLLSGLRRRKRPLSWRGHRDGPQHPDPD | efficiently facilitated cholesterol transfer
Aster-C: purified recombinant ASTER domain of mouse Aster-C (protein, UniProt Q8CI52 206-528, looked up, fragment, ASTER domain) MEHLLSVEENVQPRSPGRSSVDDAGERDEKFSKAVSFTQESVSRASETEPLDGNSPKRGLGKEDSQSERNVRKSPSLASEKRISRAPSKSLDLNKNEYLSLDKSSTSDSVDEENIPEKDLQGRLYINRVFHISAERMFELLFTSSHFMQRFANSRNIIDVVSTPWTVESGGNQLRTMTYTIVLSNPLTGKYTAATEKQTLYKESREAQFYLVDSEVLTHDVPYHDYFYTLNRYCIVRSAKQRCRLRVSTDLKYRKQPWGLIKSLIEKNSWSSLESYFKKLESDLLMEESVLSQSIEDAGKHSSLRRRRRTLNRTAEPVPKLSS | efficiently facilitated cholesterol transfer
